This passage reports binding result and Kd results from patent US20160031942A1 (LONDON HEALTH SCIENCES CENTRE RESEARCH, published 2016).

Ends that are not written are not given here. * marks the point of attachment. FITC = O=C1OC2(c3ccc(O)cc3Oc3cc(O)ccc32)c2ccc(NC(=S)*)cc21; Ahx = NCCCCCC(=O)O

Test [1] deals with T1, Recombinant protein RHAMM-CT (truncated RHAMM, carboxy terminus containing the HA binding domain, amino acids … (Mus musculus (Mouse), UniProt Q00547 706-766)).
T1 construct: Expressed in E. coli BL21 from pPAL7-RHAMM as eXact-tagged protein and purified on Profinity eXact resin (fluoride elution); M.W. 7.1 kDa, pI 10.1; also called recombinant RHAMM
T1 sequence: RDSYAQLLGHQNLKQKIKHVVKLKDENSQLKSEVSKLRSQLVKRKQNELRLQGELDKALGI
In words: solid phase peptide binding assay (ELISA), immobilised RHAMM.

Test [2] has as its target T2, Recombinant protein RHAMM-CT (truncated RHAMM, carboxy terminus containing the HA binding domain, amino acids … (UniProt Q00547 706-766)).
T2 chain: T1 sequence
Kind of test: SPR.

Test [3] addresses T1, Recombinant protein RHAMM-CT (truncated …). Kind of test: SPR screening (ProteON XPR36), RHAMM immobilised, peptide at 10 µM. On the procedure: ProteON XPR36 system was used for the selection and ranking of different tubulin derived peptides against RHAMM. For immobilization of RHAMM, the ProteON GLC sensor chip surfaces were activated by amine coupling using 100 mM EDAC and 24 mM sulfo-NHS. RHAMM (30 μg/mL in sodium bicarbonate buffer, pH 9.7) was injected at a flow a rate of 30 μl/min. A buffer sample was injected on a different sensor plate for use as a reference. Ethanolamine HCl (1M, pH 8.5) was then injected to deactivate any remaining surface groups. Peptides (10 μM in PBS-T, 2% DMSO) were injected to a RHAMM functionalized surface at 50 μL/min for 3 minutes followed by a 10 minute dissociation (i.e. injection of PBS-T buffer) period. The surfaces were regenerated using two injections of 30 μL of 1M NaCl prior to the injection of the next peptide. In all experiments, reference subtraction was performed using data obtained from reference plate (No RHAMM) and RHAMM functionalized plate.
After immobilization of RHAMM on the SPR sensor chip, injection of a series of tubulin derived peptides was carried out. Association of the peptides with RHAMM proceeded for 3 minutes and the dissociation in analyte free buffer was carried out for 10 minutes. […]

B1: peptide 3c (SEQ ID NO: 27), fluorescein-conjugated SEQ ID NO: 3 (peptide)
peptide: {FITC-Ahx}-SVEAEAEEGEEY-NH2
B1: the binding result in test [1] was “binds”.

B2: peptide 14a (SEQ ID NO: 14), unmodified tubulin-derived peptide, sequence directly flanking beta-IIIa CTT (peptide)
peptide: FTEAESNMNDLV-NH2
notes: Synthetic 12-mer made on Rink amide MBHA resin
As for B2, the Kd (usually a measure of binding affinity in units of concentration) in test [2] was found to be 30 nM. The binding result in test [3] is on record as “binds”.

B3: peptide 12c (SEQ ID NO: 33), fluorescein-conjugated SEQ ID NO: 12 (peptide)
peptide: {FITC-Ahx}-EAFEDEEEEIDG-NH2
Take B3: in test [1], the binding result is on record as “binds”.

B4: peptide 11c (SEQ ID NO: 31), fluorescein-conjugated SEQ ID NO: 11 (peptide)
peptide: {FITC-Ahx}-GEFEEEAEEEVA-NH2
B4: in test [1], the binding result is listed as “binds”.
